Laboratory results as given in patent publication US20120309051A1 (UNIVERSITY OF MEDICINE AND DENTISTRY OF NEW JERSEY, published 2012).

Target: T1, GFP-MG53 (GFP fused to the amino-terminus of full-length mouse MG53) (mouse, UniProt Q1XH17 1-477)
T1 sequence: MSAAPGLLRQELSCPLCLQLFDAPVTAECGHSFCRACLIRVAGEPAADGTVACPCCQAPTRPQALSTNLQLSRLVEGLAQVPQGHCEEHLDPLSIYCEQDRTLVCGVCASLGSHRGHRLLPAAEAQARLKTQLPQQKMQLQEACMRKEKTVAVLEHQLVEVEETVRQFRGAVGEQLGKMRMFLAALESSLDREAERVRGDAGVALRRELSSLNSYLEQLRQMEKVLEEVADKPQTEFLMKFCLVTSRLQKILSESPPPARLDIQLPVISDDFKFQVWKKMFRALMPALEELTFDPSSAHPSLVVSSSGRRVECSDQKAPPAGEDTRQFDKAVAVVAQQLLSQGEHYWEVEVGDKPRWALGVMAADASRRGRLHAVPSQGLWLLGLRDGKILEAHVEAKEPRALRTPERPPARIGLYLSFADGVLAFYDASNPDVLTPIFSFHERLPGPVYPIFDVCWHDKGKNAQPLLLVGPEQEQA
Experiment: cell-based or functional assay

reduction in the appearance of filapodia-like structures (C2C12 myoblasts transfected with caveolin-3 and GFP-MG53 in a ratio of 10:1): 82%
B1: caveolin-3 (recombinant, expressed from pcDNA-Cav-3) (other)
chain: MMAEEHTDLEAQIVKDIHCKEIDLVNRDPKNINEDIVKVDFEDVIAEPVGTYSFDGVWKVSYTTFTVSKYWCYRLLSTLLGVPLALLWGFLFACISFCHIWAVVPCIKSYLIEIQCISHIYSLCIRTFCNPLFAALGQVCSSIKVVLRKEV
